What is called Kd is the concentration at which binding is half-saturated. A lower Kd goes with tighter binding.

One test addresses T1, Nf Gα7 (Naegleria fowleri, UniProt A0A6I8WFP8).
T1 construct: gene NF0037180; N-terminal TEV-cleavable His6 tag; E. coli
T1 sequence (A0A6I8WFP8 1-321): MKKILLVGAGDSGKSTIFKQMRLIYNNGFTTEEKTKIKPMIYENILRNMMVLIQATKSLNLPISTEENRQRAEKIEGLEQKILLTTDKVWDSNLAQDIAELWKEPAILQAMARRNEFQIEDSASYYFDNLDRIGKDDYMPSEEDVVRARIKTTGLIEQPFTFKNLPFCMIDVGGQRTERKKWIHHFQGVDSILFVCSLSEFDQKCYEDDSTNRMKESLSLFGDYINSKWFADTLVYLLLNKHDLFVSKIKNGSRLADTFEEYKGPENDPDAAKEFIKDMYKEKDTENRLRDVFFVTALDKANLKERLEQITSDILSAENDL
Kind of test: intrinsic tryptophan fluorescence (activation). The format is binding. The note with it: 0.5 μM protein, 1 μM nucleotide, 10 mM MgCl2, pH 7.5, 20 °C.

For test [1], the target named is T2, Nf Gα5 (Naegleria fowleri, UniProt A0A6A5BQC6).
T2 construct: gene FDP41_003899; N-terminal TEV-cleavable His6 tag; E. coli
T2 sequence (A0A6A5BQC6 57-394 limits assumed): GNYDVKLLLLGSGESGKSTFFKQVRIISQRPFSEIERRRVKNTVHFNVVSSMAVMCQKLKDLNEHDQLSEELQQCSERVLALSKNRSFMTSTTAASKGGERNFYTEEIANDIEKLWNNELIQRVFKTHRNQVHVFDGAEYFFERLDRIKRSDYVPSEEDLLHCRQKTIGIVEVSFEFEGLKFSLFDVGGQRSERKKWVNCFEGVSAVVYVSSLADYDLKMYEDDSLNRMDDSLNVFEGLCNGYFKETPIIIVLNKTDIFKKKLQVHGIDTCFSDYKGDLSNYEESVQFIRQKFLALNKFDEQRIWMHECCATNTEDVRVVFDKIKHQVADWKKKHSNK
Kind of test: intrinsic tryptophan fluorescence (activation, return after hydrolysis). The format is biochemical. As to conditions: 0.5 μM protein, 1 μM nucleotide, 10 mM MgCl2, pH 7.5, 20 °C.

For test [2], the target named is T2, Nf Gα5. Kind of test: intrinsic tryptophan fluorescence (activation). Format: binding. The note with it: 0.5 μM protein, 1 μM nucleotide, 10 mM MgCl2, pH 7.5, 20 °C.
Test [3] addresses Naegleria fowleri G protein α subunit Nf Gα2 (Naegleria fowleri). Kind of test: SPR; Proteon XPR36; ~5000 RU of His6-tagged Gα subunits immobilised on a nickel-NTA chip by covalent capture coupling; RGS domains injected as analyte at 20 μl/min; 50 mM Hepes pH 7.4, 150 mM NaCl, 0.05% NP-40 alternative, 50 μM EDTA, 1 mM MgCl2; Gα in the AMF state (100 μM GDP, 20 mM NaF, 30 μM AlCl3); equilibrium binding analysis. (SPR reads the build-up and loss of mass on a sensor chip optically.)

Test [4] has as its target Naegleria fowleri G protein α subunit Nf Gα3 (Naegleria fowleri). The test is described as above.

As to `Nc1nc2c(ncn2[C@@H]2O[C@H](COP(=O)(O)OP(=O)(O)OP(=O)(O)O)[C@@H](O)[C@H]2O)c(=O)[nH]1` [GTP], the “intrinsic tryptophan fluorescence (activation)” value at Nf Gα7 was “achieved the active conformation in the presence of either GppNHp or GTP”. Moreover, at Nf Gα5 [1], the “intrinsic tryptophan fluorescence (activation, return after hydrolysis)” value was “returned slowly to near-baseline levels after multiple rounds of hydrolysis and exhaustion of available GTP”. Consider `Nc1nc2c(ncn2[C@@H]2O[C@H](COP(=O)(O)OP(=O)(O)NP(=O)(O)O)[C@@H](O)[C@H]2O)c(=O)[nH]1` [GppNHp], for which the “intrinsic tryptophan fluorescence (activation)” value on Nf Gα7 and at Nf Gα5 [2] was “achieved the active conformation in the presence of either GppNHp or GTP” in each case.

As to “RGS domain of Naegleria fowleri Nf RGS-RhoGEF (domain or fragment)”, the Kd in test [3] came to 2.4 µM; in test [4] it was 3.3 µM. For “RGS domain of Naegleria fowleri seven-transmembrane RGS protein Nf 7TM RGS2 (domain or fragment)”, in that order: 0.63 µM and 0.55 µM.

As for “RGS domain of Naegleria fowleri seven-transmembrane RGS protein Nf 7TM RGS4 (domain or fragment)”, the dissociation constant (Kd) in test [4] worked out at 1.8 µM.

Source of the values: publication PMC9283941, “Self-activating G protein α subunits engage seven-transmembrane regulator of G protein signaling (RGS) proteins and a Rho guanine nucleotide exchange factor effector in the amoeba Naegleria fowleri” (The Journal of Biological Chemistry, 2022).
